According to IntAct's records for PubMed 22892567:

Molecular target: cbx3_mouse Cbx3 (UniProt P23198)
Sequence (P23198 whole entry): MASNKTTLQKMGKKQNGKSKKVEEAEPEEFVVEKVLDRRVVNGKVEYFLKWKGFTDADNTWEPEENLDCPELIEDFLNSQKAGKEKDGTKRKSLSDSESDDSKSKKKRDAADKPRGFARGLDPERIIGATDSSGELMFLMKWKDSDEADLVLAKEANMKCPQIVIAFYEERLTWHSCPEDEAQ

| Substance | effect of a mutation on the interaction |
| --- | --- |
| Voltage-dependent L-type calcium channel subunit beta-4 (Rattus norvegicus (Rat)) (from UniProt D4A055) P220A | disrupting interaction strength |
| Voltage-dependent L-type calcium channel subunit beta-4 (Rattus norvegicus (Rat)) (from UniProt D4A055) V222A | disrupting interaction |
